Experiment [1] has as its target CD19 CAR with NGFR/CD271 spacer #N3. The experiment can be described thus: MACS selection of transduced Jurkat cells with bead-labelled antibody, flow cytometry of fractions. (In general: A flow cytometer gives signals particle by particle.)
Experiment [2] deals with CD19 CAR with NGFR/CD271 spacer #N4. Described as above.
The next experiment deals with CD19 (UniProt P15391). As to the kind of experiment: cell-based or functional assay.
Experiment [3] deals with CD19 CAR with CD34 spacer #C2 (human). The experiment can be described thus: MACS selection of transduced Jurkat cells with bead-labelled antibody, flow cytometry of fractions.
Experiment [4] concerns the target CD19 CAR with CD34 spacer #C3 (human). The description is as above.
The target of experiment [5] is CD19 CAR with CD34 spacer #C4 (human). Described as above.
Experiment [6] addresses CD19 CAR with CD34 spacer #C5 (human). The experiment is described as above.
Experiment [7] concerns the target CD19 CAR with CD34 spacer #C7 (human). Described as above.

Sequence of CD19 CAR with NGFR/CD271 spacer #N4 (P08138 66-227): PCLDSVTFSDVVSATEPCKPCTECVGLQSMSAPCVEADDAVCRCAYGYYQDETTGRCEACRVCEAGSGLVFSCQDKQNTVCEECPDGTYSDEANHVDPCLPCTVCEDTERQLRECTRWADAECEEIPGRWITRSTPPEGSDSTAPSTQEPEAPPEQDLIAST
Sequence of CD19 CAR with CD34 spacer #C7 (human) (P28906 42-220): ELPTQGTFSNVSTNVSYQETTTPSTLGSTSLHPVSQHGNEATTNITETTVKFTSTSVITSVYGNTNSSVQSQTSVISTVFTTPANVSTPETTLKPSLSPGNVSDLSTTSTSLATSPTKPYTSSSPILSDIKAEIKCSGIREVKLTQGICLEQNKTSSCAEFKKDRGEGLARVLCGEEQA
Sequence of CD19 CAR with CD34 spacer #C4 (human) (P28906 32-90): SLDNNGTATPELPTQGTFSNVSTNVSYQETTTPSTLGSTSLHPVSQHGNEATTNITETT
Sequence of CD19 CAR with CD34 spacer #C2 (human) (P28906 32-63): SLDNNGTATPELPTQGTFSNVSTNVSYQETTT
Sequence of CD19 CAR with CD34 spacer #C5 (human) (P28906 42-110): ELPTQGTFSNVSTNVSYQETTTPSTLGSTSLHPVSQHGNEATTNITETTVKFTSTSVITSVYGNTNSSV
Sequence of CD19 CAR with CD34 spacer #C3 (human) (P28906 42-90): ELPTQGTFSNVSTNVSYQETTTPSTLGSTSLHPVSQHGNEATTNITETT
Sequence of CD19 CAR with NGFR/CD271 spacer #N3 (P08138 108-227): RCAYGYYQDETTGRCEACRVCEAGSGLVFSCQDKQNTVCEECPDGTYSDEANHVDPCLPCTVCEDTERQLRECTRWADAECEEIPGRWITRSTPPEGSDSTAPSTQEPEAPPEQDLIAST
Sequence of UniProt P15391 (P15391 20-556 limits assumed): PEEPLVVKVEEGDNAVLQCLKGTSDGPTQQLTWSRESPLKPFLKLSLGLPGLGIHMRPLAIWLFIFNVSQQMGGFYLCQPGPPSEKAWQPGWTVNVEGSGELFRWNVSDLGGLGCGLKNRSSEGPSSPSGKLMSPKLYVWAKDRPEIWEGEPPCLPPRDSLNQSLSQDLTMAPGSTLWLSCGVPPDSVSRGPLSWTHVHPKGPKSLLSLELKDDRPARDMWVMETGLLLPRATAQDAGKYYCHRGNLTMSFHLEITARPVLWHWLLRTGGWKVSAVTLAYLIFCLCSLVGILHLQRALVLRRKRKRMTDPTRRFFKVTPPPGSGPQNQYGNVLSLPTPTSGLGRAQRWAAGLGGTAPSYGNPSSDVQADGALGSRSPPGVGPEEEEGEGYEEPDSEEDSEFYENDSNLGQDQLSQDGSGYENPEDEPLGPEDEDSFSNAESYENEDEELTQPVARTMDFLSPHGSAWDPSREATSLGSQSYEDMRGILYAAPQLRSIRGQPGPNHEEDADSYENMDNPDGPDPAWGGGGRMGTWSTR

Consider CD271 monoclonal antibody ME20.4, for which, in experiment [1], the percent positive cells before MACS turned out to be 60.1% and the percent positive cells in flow through came to 57.2%. Also, in experiment [2], the percent positive cells before MACS is 51.4% and the percent positive cells in flow through turned out to be 49.7%.

Turning to “CD19 CAR with the IgG4 CH2CH3 as spacer domain (from UniProt P01861 99-327)”, the killing of REH cells at 0.1:1 effector to target cell ratio in the experiment with CD19 was 48.9%.

As to CD34 monoclonal antibody QBend10, the percent positive cells before MACS in experiment [3] came to 68.7%; in experiment [4] it was 61.6%; in experiment [5], 64.3%; in experiment [6] it was 65.5%; in experiment [7] it was 78.4%. Further, the percent positive cells in flow through is 68.1% in experiment [3]; 47.6% in experiment [4]; 47% in experiment [5]; 41.1% in experiment [6]; 67.1% in experiment [7].

Source of the values: patent US20180094044A1.
